In patent US20190194322A1 (published 2019) one finds Kd data, which are given here for six molecules.

Assay [1] addresses T1, Recombinant human VSIG3 Fc Chimera.
T1 chain: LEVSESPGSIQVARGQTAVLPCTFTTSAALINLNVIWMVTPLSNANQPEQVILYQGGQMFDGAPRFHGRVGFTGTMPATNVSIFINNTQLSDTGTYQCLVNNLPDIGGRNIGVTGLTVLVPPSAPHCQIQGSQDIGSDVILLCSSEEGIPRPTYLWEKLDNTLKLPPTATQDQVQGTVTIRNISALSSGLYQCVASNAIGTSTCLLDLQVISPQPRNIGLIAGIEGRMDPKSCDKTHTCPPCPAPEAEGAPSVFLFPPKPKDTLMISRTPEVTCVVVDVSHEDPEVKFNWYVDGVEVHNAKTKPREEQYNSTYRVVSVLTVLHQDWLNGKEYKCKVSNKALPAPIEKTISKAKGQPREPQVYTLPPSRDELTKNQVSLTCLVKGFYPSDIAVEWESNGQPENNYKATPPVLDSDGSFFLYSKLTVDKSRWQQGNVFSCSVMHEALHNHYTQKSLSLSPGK
The assay is described as follows: SPR (Biacore, single-cycle kinetics).

Assay [2] has the same target. The assay is described as follows: SPR (Biacore, single-cycle kinetics). For orientation: In SPR one partner is held on a chip, and binding of the other changes the refractive index at the surface.
The target in assay [3] is T2, VSIG3 His-fusion (human, UniProt Q5DX21 23-241, biotinylated (in the co-immunoprecipitation of FIG. 2)).
T2 chain: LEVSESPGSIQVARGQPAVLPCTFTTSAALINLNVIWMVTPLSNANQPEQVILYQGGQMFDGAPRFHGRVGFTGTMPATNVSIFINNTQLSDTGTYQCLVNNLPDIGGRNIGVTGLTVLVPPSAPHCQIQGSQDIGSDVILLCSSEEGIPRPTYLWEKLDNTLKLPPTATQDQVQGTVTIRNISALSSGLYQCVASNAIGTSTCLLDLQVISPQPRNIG
The experiment in a line: SPR (Biacore), antibody captured on protein A/G/L, single-cycle kinetics.

The target of assay [4] is T1, Recombinant human VSIG3 Fc Chimera. The assay is described as follows: SPR (Biacore, single-cycle kinetics).
Assay [5] concerns the target T2, VSIG3 His-fusion. The experiment in a line: SPR (Biacore), antibody captured on protein A/G/L, single-cycle kinetics.
The target in assay [6] is T1, Recombinant human VSIG3 Fc Chimera. The assay is described as follows: SPR (Biacore, single-cycle kinetics).
Assay [7] shares this target. The experiment in a line: SPR (Biacore), VSIG3-Fc immobilized, antibody as analyte, single-cycle kinetics.

Changes are numbered by the printed parent chain. Read-outs that look alike come from different tables or passages of the source.

As a reminder, the Kd is the free concentration of one partner at which half of the binding sites on the other are occupied at equilibrium, for simple one-to-one binding.

B1: mouse anti-human VSIG3 monoclonal antibody from clone #973422 (antibody, V domains shown)
VH: EVKLVESGGGLVQPGGSLKLSCAASGFTFSSYSMSWVRQTPEKRLEWVAYISNGGGSTYYPDTVKGRFTISRDNAKNTLYLQMSSLKSEDTAMYYCARHGDGYYPWFAYWGQGTLVTVSA
VL: QIVLSQSPAILSASPGEKVTMTCRASSSVSYIHWYQQKPGSSPKPWIYATSNLASGVPARFSGSGSGTSYSLTISRVEAEDAATYYCQQWSSNPFTFASGTKLEIKR
B1: in assay [1], the Kd was determined as 1.5 nM.

B2: mouse anti-human VSIG3 monoclonal antibody from clone #774226 (antibody, V domains shown)
VH: DVQLQESGPGLVKPSQSLSLICTVTGYSITSDYAWNWIRQFPGNKLEWMGYISYSGYTTYNPSLKSRISITRDTSKNQFFLQLNSVTTEDTATYYCAISGGSWFAYWGQGTLVTVSA
VL: DIQMTQSPASLSASVGETVNITCRTSENINSYLAWYQQKQGKSPQLLVYNAKTLAEGVPSRFSGSGSGTQFSLKINSLQPEDFGSYYCQHHYGTPPTFGGGTKLEIKR
As to B2, the values for the Kd (in assay [2]; in the assay with VSIG3 His-fusion [3]) were 65 nM and 42 nM, respectively.

B3: mouse anti-human VSIG3 monoclonal antibody from clone #774221 (antibody, V domains shown)
VH: B2 VH with I21T, T58A, T59I, Q78H, I98R
VL: B2 VL with N20T, T25A
As for B3, the equilibrium dissociation constant (Kd) amounted to 21 nM in assay [2] and 25 nM in the assay with VSIG3 His-fusion [3].

B4: mouse anti-human VSIG3 monoclonal antibody from clone #973401 (antibody, V domains shown)
VH: QVQLQQSAAELARPGASVKMSCKASGYTFATYTIHWVKQRPGQGLEWIGYINPSSGYTEYNQKFKDKTTLTADKSSSTAYMQLSSLTSEDSAVYYCARREVYGSGSMDYWGQGTSVTVSS
VL: QIVLTQSPALMSASPGEKVTMTCSASSSVSFMYWYHQKPRSSPKPWIYLTSNLASGVPARFSGSGSGTSYSLTISSMEAEDAATYYCQQWSSNPLTFGAGTKLELKR
Take B4: the Kd in assay [4] came to 2.2 nM.

B5: mouse anti-human VSIG3 monoclonal antibody from clone #774213 (antibody, V domains shown)
VH: DVQLVESGGGLVQPGGSRKLSCAASGFTFSSFGMHWVRQAPEKGLEWVAYISSGSTTIYYADTVKGRFTISRDNPKNTLFLQMTSLRSEDTAMYYCTRGSYYRYDLYYAMDYWGQGTSVTVSS
VL: DIQMTQSPSSLSASLGGKVTITCKASQDIHKYVAWYQHKPGKGPRLLIHYTSTLQPGIPSRFSGSGSGSDYSFSISNLEPADIASYYCLQYDNLLFTFGGGTKLEIKR
On to B5, for which the Kd is 19 nM in the assay with VSIG3 His-fusion [5] and 9.2 nM in assay [6].

B6: mouse anti-human VSIG3 monoclonal antibody from clone #973428 (antibody, V domains shown)
VH: EVQLVESGGDLVKPGGSLKLSCAASGFTFNSYGMSWVRQTPDKRLEWVAIISSGGSYTYYPDSVKGRFTISRDNAKNTLYLQMSSLKSEDTAMYYCARLSYYYGSSPYAMDYWGQGTSVTISS
VL: DIVLTQSPASLAVSLGQRATISCRASKSVSTSGYSYMHWYQQKPGQSPKLLIYLASNLESGVPARCSGSGSGTDFTLNIHPVEEEDAATYYCQHSRELPYTFGGGTKLEIKR
As to B6, in assay [7], the Kd came out at 2.2 nM.
